System: WNT-responsive reporter gene
Experiment: Luciferase assay with synthetic WNT-reporter (10 copies of TCF/LEF motif)
Assay type: cell-based
Conditions: overexpression in HEK293T cells
Experimental: (FIG. 56A) Schematic of the ChIP experiment. TdTomato-tagged wild type or aromatic mutant β-catenin were stably integrated in mES cells under a doxycycline-inducible promoter. Doxycycline was added to the media 24 hours prior to crosslinking. ChIP was preformed using antibodies against TdTomato. TRE=Tetracycline responsive element. (FIG. 56B) (Top) ChIP-qPCR of ectopically-expressed wild type or aromatic mutant β-catenin at Myc, Sp5, and Klf4 enhancers. Error bars indicate standard deviation of three replicates. Stars indicate p-values obtained by a t-test <0.05. (Bottom) RT-qPCR of mRNA levels after ectopic expression of wild type or aromatic mutant β-catenin of Myc, Sp5, and Klf4. Error bars indicate standard deviation of three replicates. Stars indicate p-values obtained by a t-test <0.05. (FIG. 56C) Luciferase assay using a synthetic WNT-reporter containing 10 copies of the consensus TCF/LEF motif were wild type or aromatic mutant β-catenin was overexpressed in HEK293T cells. Average of 3 biological replicates is shown. Error bars show the standard deviation. Star indicates p-value obtained by a t-test <0.05.
We independently tested the ability of the β-catenin aromatic mutant to transactivate a WNT-responsive reporter gene in a luciferase assay with wild type and mutant forms of β-catenin (FIG. 56C).

B1: wild type β-catenin: wild type β-catenin overexpressed in HEK293T cells (protein, UniProt P35222 2-781, looked up)
Catenin beta-1: ATQADLMELDMAMEPDRKAAVSHWQQQSYLDSGIHSGATTTAPSLSGKGNPEEEDVDTSQVLYEWEQGFSQSFTQEQVADIDGQYAMTRAQRVRAAMFPETLDEGMQIPSTQFDAAHPTNVQRLAEPSQMLKHAVVNLINYQDDAELATRAIPELTKLLNDEDQVVVNKAAVMVHQLSKKEASRHAIMRSPQMVSAIVRTMQNTNDVETARCTAGTLHNLSHHREGLLAIFKSGGIPALVKMLGSPVDSVLFYAITTLHNLLLHQEGAKMAVRLAGGLQKMVALLNKTNVKFLAITTDCLQILAYGNQESKLIILASGGPQALVNIMRTYTYEKLLWTTSRVLKVLSVCSSNKPAIVEAGGMQALGLHLTDPSQRLVQNCLWTLRNLSDAATKQEGMEGLLGTLVQLLGSDDINVVTCAAGILSNLTCNNYKNKMMVCQVGGIEALVRTVLRAGDREDITEPAICALRHLTSRHQEAEMAQNAVRLHYGLPVVVKLLHPPSHWPLIKATVGLIRNLALCPANHAPLREQGAIPRLVQLLVRAHQDTQRRTSMGGTQQQFVEGVRMEEIVEGCTGALHILARDVHNRIVIRGLNTIPLFVQLLYSPIENIQRVAAGVLCELAQDKEAAEAIEAEGATAPLTELLHSRNEGVATYAAAVLFRMSEDKPQDYKKRLSVELTSSLFRTEPMAWNETADLGLDIGAQGEPLGYRQDDPSYRSFHSGGYGQDALGMDPMMEHEMGGHHPGADYPVDGLPDLGHAQDLMDGLPPGDSNQLAWFDTDL
increase in luciferase activity: 8 fold

Reference: US20220120736A1, “METHODS AND ASSAYS FOR MODULATING GENE TRANSCRIPTION BY MODULATING CONDENSATES” (Whitehead Institute for Biomedical Research, priority 2018, published 2022)
